Experimental findings from patent publication US20230303660A1 are described below.

In the assay the target is human 4-1BB (human) (UniProt Q07011). The assay can be described thus: cell-based or functional assay.
human 4-1BB (human), sequence (Q07011 24-255): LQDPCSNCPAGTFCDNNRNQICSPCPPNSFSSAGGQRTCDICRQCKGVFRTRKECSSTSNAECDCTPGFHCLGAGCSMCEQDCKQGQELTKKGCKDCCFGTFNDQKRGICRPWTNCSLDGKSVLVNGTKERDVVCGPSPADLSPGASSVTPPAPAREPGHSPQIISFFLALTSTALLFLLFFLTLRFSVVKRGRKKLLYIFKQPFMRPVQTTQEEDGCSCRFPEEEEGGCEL

Consider “human 4-1BBL expressed on T cell stimulator cells (from UniProt P41273 1-254) (ligand)”, for which the NF-κB activation measured through eCFP expression (fold induction) is 2.5 fold.
